Reference: US20220257706A1, “EPIDERMAL GROWTH FACTOR RECEPTOR (EGFR) LIGANDS” (NANYANG TECHNOLOGICAL UNIVERSITY, priority 2019, published 2022)

Tests used:
[1] = target: EGFR of HaCaT (human keratinocyte) cells (human), P00533; assay: cell-based or functional assay
EGFR-Fc, P00533 = assay: TR-FRET competitive displacement of biotin-EGF from EGFR-Fc

B1: bleogen pB1 (peptide)
peptide: QCKPNGAKCTEISIPPCCSNFCLRYAGQKSGTCANR
modifications: not checked
HaCaT cell proliferation (crystal violet, 72 h), EC50 [1]: 130 nM | IC50 (EGFR-Fc, P00533): 1720 nM
